Laboratory results: the supplement of paper PMC10567573
± gives the standard deviation.

Assay: protein stability index of a GFP-peptide fusion (GPS, HEK-293T) (PSI 1-6); higher = more stable
[1] = treatment: DMSO, c terminus: a fixed tail appended
[2] = treatment: MLN4924 1 uM, 8 h, c terminus: a fixed tail appended
[3] = treatment: DMSO, c terminus: native
[4] = treatment: MLN4924 1 uM, 8 h, c terminus: native
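Also: 24-mer peptide tiles fused after GFP, lentivirally expressed, FACS-sorted into six equal bins by GFP/DsRed ratio, decoded by Illumina sequencing, PSI is the read-weighted mean bin number.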

Row | Sequence | protein stability index [1] | protein stability index [2] | protein stability index [3] | protein stability index [4]
1 | GQILELPWKEETFLVLQSLLERQV [FANCE] | 1.9 ± 0.35 | 2.1 ± 0.34 |  | 
2 | DARIGEAEAKRDAGIREAKAKQEK [FLOT1] | 5.5 ± 0.19 | 5.37 ± 0.19 |  | 
3 | ILGRTFFIYDCDPFTRRYYKEKFG [EFHC1] | 2.52 ± 0.63 | 2.24 ± 0.63 |  | 
4 | VDLVQKYLEKYYNLKNDGRQVEKR [MMP1] | 2.42 ± 0.25 | 2.68 ± 0.36 |  | 
5 | AQQWRRARHNYNDLCPPIGRRAAT [GNAS] | 3.58 ± 0.3 | 3.6 ± 0.16 |  | 
6 | KRPARLHTKPSQAPAVEVAPAGAS [NOP53] | 4.77 ± 0.42 | 4.96 ± 0.19 |  | 
7 | MAGCRGSLCCCCRWCCCCGERETR [CLCN6] | 2.42 ± 0.28 | 2.98 ± 0.44 |  | 
8 | AKVESMDQEIKFFRCLFEAEITQI [KRT71] | 2.01 ± 0.51 | 2.19 ± 0.15 |  | 
9 | AMLDEISLMDLAIEEGFNPVQASQ [NFE2L1] | 3.53 ± 0.39 | 3.66 ± 0.2 |  | 
10 | HILKKYYGNGMRKSPEMPVILEVS [RTP4] | 1.99 ± 0.51 | 2.2 ± 0.37 |  | 
11 | LHILARDVHNRIVIRGLNTIPLFV [CTNNB1] | 2.73 ± 0.48 | 2.68 ± 0.56 |  | 
12 | ALPPLRTRSKSDPVLHPSEERAAP [FAM189A2] | 5.64 ± 0.39 | 5.58 ± 0.2 |  | 
13 | SVNFDGETIEGAPPLWAASAAGHL [FEM1C] | 3.52 ± 0.23 | 3.6 ± 0.23 |  | 
14 | LNIKVKLEAEIATYRRLLEDGEDF [KRT18] | 2.66 ± 0.2 | 2.5 ± 0.34 |  | 
15 | VSPGPSRSFKEELLCAVCYDPFRD [TRIM35] | 2.79 ± 0.21 | 2.91 ± 0.27 |  | 
16 | HSLQQSEPDLRHLVLVVNTLRRIQ [SERTAD1] | 2.44 ± 0.33 | 2.61 ± 0.17 |  | 
17 | PAVPFAPHFLQGGPFPLPYTAPGG [TBX6] | 2.95 ± 0.097 | 3.03 ± 0.14 |  | 
18 | PPASPPADGSPPLLPPGEPPLLGT [ANKRD40] | 5.17 ± 0.26 | 5.42 ± 0.14 |  | 
19 | QLSHIKAKIRAKIPGTGALASAAA [RTN2] | 3.07 ± 0.21 | 3.09 ± 0.41 |  | 
20 | DLSRLVNCLTGEGEDTRLSASEMK [CIB1] | 3.5 ± 0.38 | 3.86 ± 0.28 |  | 
21 | VKYGLAATVWSSNVGRVHRVAKKL [ALDH8A1] | 2.48 ± 0.33 | 2.43 ± 0.4 |  | 
22 | EAINFCRGLGSQASTVTEIVKQQD [ACSBG2] | 4.12 ± 0.11 | 4.11 ± 0.18 |  | 
23 | DTLDHIRALDRLQEVPHEGPMCDL [PPP2CA] | 4.76 ± 0.24 | 4.8 ± 0.066 |  | 

Row | Sequence | protein stability index [1] | protein stability index [2] | protein stability index [3] | protein stability index [4]
24 | SRIQEWYEFQIPYICPDYQSYFKT [KRT36] | 2.29 ± 0.31 | 2.17 ± 0.36 |  | 
25 | VFPGARLLTIGDANGEIQRHAEQQ [CARM1] | 4.64 ± 0.16 | 4.23 ± 0.2 |  | 
26 | RLLGTAGTEEKKKLIRDFDEKQQE [VTI1B] | 5.06 ± 0.15 | 5.11 ± 0.33 |  | 
27 | CGERLSLGLSRAQPVQSKPQKASA [PDLIM7] | 3.85 ± 0.38 | 4.06 ± 0.33 |  | 
28 | GSAVEVQTYQPPWKALSEFALQSD [ISL2] | 3.61 ± 0.4 | 3.73 ± 0.39 |  | 
29 | FLQRGADTNLGRLEDGQTPLHLSA [ASB7] | 3.61 ± 0.17 | 3.76 ± 0.26 |  | 
30 | NILEKEVLPPIHAYGNRTECRNPQ [FEM1B] | 4.03 ± 0.079 | 4.18 ± 0.11 |  | 
31 | GRDDLESFQLEISGFLKEMACPYS [FAM98B] | 2.29 ± 0.3 | 2.67 ± 0.75 |  | 
32 | EELDGLCFKGELPLRAVHINLEEK [PLEKHN1] | 4.41 ± 0.26 | 4.44 ± 0.29 |  | 
33 | NLKFITDPFVCRLRHLSPTPSEEH [OR4A15] | 2.54 ± 0.11 | 3 ± 0.2 |  | 
34 | MRYEEEGMSYLYASWMYQLQHGDQ [TEX19] | 2.3 ± 0.29 | 2.13 ± 0.17 |  | 
35 | SDPDCSMRPTLIDLLPTFRHTLQK [FBXO39] | 3.33 ± 0.27 | 3.45 ± 0.28 |  | 
36 | SIDKDEEFAGSSPQSSKSTVVKSL [FAN1] | 5.165 ± 0.042 | 5.27 ± 0.27 |  | 
37 | PNFMKVIPAVSISYVVYENLKITL [SLC25A25] | 3.2 ± 0.4 | 3.46 ± 0.52 |  | 
38 | TFFCTNATIHGAIRLVCSRGNRLK [SCNN1D] | 2.54 ± 0.27 | 2.41 ± 0.41 |  | 
39 | KLRRQVIQVVLNGMESYQEVTVQR [ZER1] | 2 ± 0.19 | 2.28 ± 0.57 |  | 
40 | LVDFCNKPILLHQVEALAAAGVDH [GMPPB] | 2.65 ± 0.31 | 2.95 ± 0.35 |  | 
41 | MNEHPVCSRTWTNRLCHQEMGSKK [SPAG8] | 3.94 ± 0.28 | 4.09 ± 0.12 |  | 
42 | LDVWLSGGNDLCVWNRKLDLLCKT [WDR41] | 2.28 ± 0.35 | 2.19 ± 0.31 |  | 
43 | QLQVTEREEVRGRELTGLKALYET [LMNB1] | 3.68 ± 0.18 | 3.98 ± 0.38 |  | 
44 | LIKDAIVSTQPAMMVNLRACSAPG [C2CD2L] | 2.82 ± 0.26 | 2.54 ± 0.31 |  | 
45 | IKVKPKRVGIFLDYEAGTLSFYNV [TRIM39] | 2.54 ± 0.54 | 2.61 ± 0.48 |  | 
46 | GLLICLPREQAARFCSEIKSSKYG [SEPHS2] | 2.04 ± 0.28 | 2.17 ± 0.55 |  | 

Row | Sequence | protein stability index [1] | protein stability index [2] | protein stability index [3] | protein stability index [4]
47 | GAAEPITVKFANNPSQKTGQALLT [ELAVL3] | 4.1 ± 0.3 | 4.39 ± 0.055 |  | 
48 | TKITSKHVKMMLSGVCLFAVFIAL [PTGFR] | 3.2 ± 0.24 | 2.78 ± 0.1 |  | 
49 | GKHPKDKTEDENKQSFLDGGKGHH [TOR1AIP2] | 5.4 ± 0.34 | 5.55 ± 0.22 |  | 
50 | TEDIQTRQYRSIEVLIGAGYSTPA [SRPK2] | 2.94 ± 0.4 | 2.87 ± 0.5 |  | 
51 | RLLDHQDNILSLINVNDLSFVTGS [WDR41] | 2.22 ± 0.28 | 2.51 ± 0.3 |  | 
52 | CYDPKGDQWNILQTPILEGRSGPG [KLHL14] | 2.53 ± 0.31 | 2.77 ± 0.43 |  | 
53 | GPAVVCGTPTSHVYMFKNGSGDSG [LYSMD4] | 3.7 ± 0.12 | 3.65 ± 0.33 |  | 
54 | GEGVERELFVREPTGRLPALVRWW [MYORG] | 2.91 ± 0.075 | 2.77 ± 0.34 |  | 
55 | QDTLELESPSLTSTPVCSQKVVVT [MYBL2] | 4.59 ± 0.18 | 4.63 ± 0.11 |  | 
56 | SFLQNAVLAYVQASPVRTLSPPK [LRRC45] |  |  | 2.3 ± 0.32 | 2.1 ± 0.18
57 | ALVSAHSEWQRKLEAAEALLTLRN [DMRTC1] | 3.44 ± 0.24 | 3.57 ± 0.17 |  | 
58 | QLYGDAPGEVVPSGESGLRRRGSD [TMEM40] | 5.13 ± 0.18 | 5.19 ± 0.25 |  | 
59 | FCDRCCSQKVPLRRMCFVDPVRQC [ZFYVE21] | 2.29 ± 0.14 | 2.04 ± 0.15 |  | 
60 | SQSPRAAGPREGHSHSHHHHHRG [PBXIP1] |  |  | 3.02 ± 0.69 | 4.03 ± 0.49
61 | FYTLSPNSHFSLNVKTLKDGKPFP [PCDHGC5] | 2.6 ± 0.21 | 2.62 ± 0.24 |  | 
62 | CINIPGSYVCRCKQGYILNSDQTT [MATN2] | 2.43 ± 0.17 | 2.4 ± 0.35 |  | 
63 | GTPGTPSYPRTPHTPGTPKSAILV [MAP2] | 3.1 ± 0.12 | 3.24 ± 0.35 |  | 
64 | EYEAGRAGPGGGAERRRAGRLLLT [ESRRA] | 4.23 ± 0.37 | 4.33 ± 0.18 |  | 
65 | DQEEIKTLERYMCSRFFIDFPDIL [TENT5C] | 2.45 ± 0.16 | 2.56 ± 0.33 |  | 
66 | PPMGKAFQELAGKELCAMSEEQFR [SPDEF] | 4.3 ± 0.25 | 4.4 ± 0.34 |  | 
67 | EYAGSNTYEEAAAYIQCQFEDLNK [GNAI1] | 3.95 ± 0.37 | 4.12 ± 0.5 |  | 
68 | VPAPEAFRDPIWSTWALYGRAVDQ [MYORG] | 2.66 ± 0.38 | 2.61 ± 0.34 |  | 
69 | RIGKRPDLLTFVQNLCKGLSQPTT [NEUROD6] | 2.3 ± 0.22 | 2.17 ± 0.083 |  | 

Row | Sequence | protein stability index [1] | protein stability index [2] | protein stability index [3] | protein stability index [4]
70 | GEAAAGGAAEEARRLEQRWGFGLE [ACBD3] | 4.49 ± 0.38 | 4.43 ± 0.38 |  | 
71 | EHDRETRMQYAPDLMKRLRFALIP [KLHL14] | 2.77 ± 0.26 | 2.56 ± 0.16 |  | 
72 | KTKKLYIDSRARRNLGSINTELQD [SEC22B] | 3.87 ± 0.22 | 4.08 ± 0.21 |  | 
73 | ETVGGAILDQTTSEDAVGGATLGQ [HDAC6] | 5.29 ± 0.25 | 5.62 ± 0.25 |  | 
74 | PKRRMRYFDPLRNEYFFDRNRPSF [KCNA3] | 2.37 ± 0.26 | 2.6 ± 0.65 |  | 
75 | QGLAEKSPLQTIGEEQTQNPYTEL [WDR41] | 5.3 ± 0.14 | 5.29 ± 0.13 |  | 
76 | QIKALNNKFASFIDKVRFLEQQNQ [KRT71] | 2.38 ± 0.1 | 2.59 ± 0.4 |  | 
77 | AGTPGYLSPEVLRKEAYGKPVDIW [CAMK2B] | 3.29 ± 0.15 | 3.31 ± 0.14 |  | 
78 | RPRGKERHKSGVHQPPQAGAGDVV [LYSMD4] | 5.07 ± 0.27 | 5.07 ± 0.057 |  | 
79 | MTTCSRQFTSSSSMKGSCGIGGGI [KRT16] | 2.41 ± 0.5 | 2.33 ± 0.16 |  | 
80 | LGLSLTNGLALGPDLNILEDSAES [PSD2] | 4.56 ± 0.15 | 4.78 ± 0.31 |  | 
81 | QGNSVDRMAAPRAEALFDFTGNSK [NCF4] | 4.7 ± 0.15 | 4.79 ± 0.17 |  | 
82 | LRFLLDQVQLGLRCCGAASYQDWQ [TSPAN10] | 3.05 ± 0.49 | 3.22 ± 0.49 |  | 
83 | EGSCYQTFRQYCGAACTCHVRNPL [RNF208] | 2.4 ± 0.37 | 2.6 ± 0.2 |  | 
84 | RASGEHVTDEEIESLMKDGDKNND [TNNC2] | 5.66 ± 0.12 | 5.68 ± 0.2 |  | 
85 | DKTPVLLTDYPVDLDEIAYFTWAS [MYORG] | 2.64 ± 0.36 | 2.86 ± 0.4 |  | 
86 | SVRISFAKGWGPCYSRQFITSCPC [SMAD6] | 2.79 ± 0.67 | 2.78 ± 0.85 |  | 
87 | VILKNSQGEEVAQRSTVFKTTIPE [LMNB1] | 2.67 ± 0.34 | 2.84 ± 0.24 |  | 
88 | EKHPKKPEPQQKAPLVPPPPPPPP [SRPK2] | 5.42 ± 0.22 | 5.47 ± 0.09 |  | 
89 | IVKAMASPESGLEVRDRMLLKITI [DVL3] | 3.12 ± 0.44 | 2.9 ± 0.55 |  | 
